According to PMC4260937 (Nature, 2014):

T1: FFL_001 (synthetic construct (designed scaffold))
T1 chain: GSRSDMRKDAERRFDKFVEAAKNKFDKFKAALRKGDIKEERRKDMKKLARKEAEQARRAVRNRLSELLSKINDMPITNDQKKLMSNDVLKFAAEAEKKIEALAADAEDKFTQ

B1: 17-HD9 IgG (antibody, V domains shown)
VH: QVQLQESGPGLVKPSETLSLTCVVSGGSFSSYYWTWIRQSPGKGLEWIGEMNGNSGYTNYNPSLQSRVTISKDASKNQFSLKLTSLTAADTAVYYCARDAIVMVFTDMRGRVDVWGPGILVTVSS
VL: DIQMSQSPSSLSASVGDTVTITCRASQGISNYLAWYQQKPGKAPKSLIYYTSHLESGVPSRFSGSGSGTDFSLTISSLQPEDFATYYCQQHNSYPRTFGQGTKVEIK

Assays:
Assay in all cases: SPR
FFL_001_surf4 = biological target: FFL_001_surf4
FFL_001_surf2 = biological target: FFL_001_surf2
FFL_001_surf1 = biological target: FFL_001_surf1
FFL_001 = biological target: T1, FFL_001

Molecule | Kd (FFL_001_surf4) [nM] | koff (FFL_001_surf4) [s⁻¹] | Kd (FFL_001_surf2) [nM] | koff (FFL_001_surf2) [s⁻¹] | kon (FFL_001_surf2) [M⁻¹ s⁻¹] | Kd (FFL_001_surf1) [nM] | kon (FFL_001_surf1) [M⁻¹ s⁻¹] | Kd (FFL_001) [nM]
motavizumab Fab | 0.0329 | 0.000158 | 0.0296 | 0.000158 | 5.32e+06 | 0.00632 | 7.43e+06 | –
B1 | – | – | – | – | – | – | – | ~0.003
